Assay results published in paper PMC5576923 (eLife, 2017).

B1: GFP-labeled PTEN C124S-T383A (natural protein, UniProt P60484 1-403, looked up)
chain: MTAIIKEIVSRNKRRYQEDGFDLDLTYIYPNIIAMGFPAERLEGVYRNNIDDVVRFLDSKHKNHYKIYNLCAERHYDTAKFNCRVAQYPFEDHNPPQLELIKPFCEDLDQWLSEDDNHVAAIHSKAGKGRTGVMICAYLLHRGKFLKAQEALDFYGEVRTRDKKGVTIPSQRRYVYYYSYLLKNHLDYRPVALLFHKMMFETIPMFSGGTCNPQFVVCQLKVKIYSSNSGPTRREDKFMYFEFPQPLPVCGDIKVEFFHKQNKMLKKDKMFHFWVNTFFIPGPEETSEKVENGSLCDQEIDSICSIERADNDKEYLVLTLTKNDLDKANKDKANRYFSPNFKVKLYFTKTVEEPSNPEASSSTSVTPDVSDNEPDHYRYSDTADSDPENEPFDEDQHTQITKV
notes: also called CS-T383A; source: PTEN-/- HCT116 cells, transfected, in fixed cells
B2: PTEN (phosphatase and tensin homolog) (natural protein)
chain: not shown
notes: source: endogenous, HCT116 cells (fixed cells)
B3: ARHGAP21 (natural protein, human (endogenous in Caco-2 and HCT116), UniProt Q5T5U3 1-1958, looked up)
chain: MMATRRTGLSEGDGDKLKACEVSKNKDGKEQSETVSLSEDETFSWPGPKTVTLKRTSQGFGFTLRHFIVYPPESAIQFSYKDEENGNRGGKQRNRLEPMDTIFVKQVKEGGPAFEAGLCTGDRIIKVNGESVIGKTYSQVIALIQNSDTTLELSVMPKDEDILQVLQFTKDVTALAYSQDAYLKGNEAYSGNARNIPEPPPICYPWLPSAPSAMAQPVEISPPDSSLSKQQTSTPVLTQPGRAYRMEIQVPPSPTDVAKSNTAVCVCNESVRTVIVPSEKVVDLLSNRNNHTGPSHRTEEVRYGVSEQTSLKTVSRTTSPPLSIPTTHLIHQPAGSRSLEPSGILLKSGNYSGHSDGISSSRSQAVEAPSVSVNHYSPNSHQHIDWKNYKTYKEYIDNRRLHIGCRTIQERLDSLRAASQSTTDYNQVVPNRTTLQGRRRSTSHDRVPQSVQIRQRSVSQERLEDSVLMKYCPRSASQGALTSPSVSFSNHRTRSWDYIEGQDETLENVNSGTPIPDSNGEKKQTYKWSGFTEQDDRRGICERPRQQEIHKSFRGSNFTVAPSVVNSDNRRMSGRGVGSVSQFKKIPPDLKTLQSNRNFQTTCGMSLPRGISQDRSPLVKVRSNSLKAPSTHVTKPSFSQKSFVSIKDQRPVNHLHQNSLLNQQTWVRTDSAPDQQVETGKSPSLSGASAKPAPQSSENAGTSDLELPVSQRNQDLSLQEAETEQSDTLDNKEAVILREKPPSGRQTPQPLRHQSYILAVNDQETGSDTTCWLPNDARREVHIKRMEERKASSTSPPGDSLASIPFIDEPTSPSIDHDIAHIPASAVISASTSQVPSIATVPPCLTTSAPLIRRQLSHDHESVGPPSLDAQPNSKTERSKSYDEGLDDYREDAKLSFKHVSSLKGIKIADSQKSSEDSGSRKDSSSEVFSDAAKEGWLHFRPLVTDKGKRVGGSIRPWKQMYVVLRGHSLYLYKDKREQTTPSEEEQPISVNACLIDISYSETKRKNVFRLTTSDCECLFQAEDRDDMLAWIKTIQESSNLNEEDTGVTNRDLISRRIKEYNNLMSKAEQLPKTPRQSLSIRQTLLGAKSEPKTQSPHSPKEESERKLLSKDDTSPPKDKGTWRKGIPSIMRKTFEKKPTATGTFGVRLDDCPPAHTNRYIPLIVDICCKLVEERGLEYTGIYRVPGNNAAISSMQEELNKGMADIDIQDDKWRDLNVISSLLKSFFRKLPEPLFTNDKYADFIEANRKEDPLDRLKTLKRLIHDLPEHHYETLKFLSAHLKTVAENSEKNKMEPRNLAIVFGPTLVRTSEDNMTHMVTHMPDQYKIVETLIQHHDWFFTEEGAEEPLTTVQEESTVDSQPVPNIDHLLTNIGRTGVSPGDVSDSATSDSTKSKGSWGSGKDQYSRELLVSSIFAAASRKRKKPKEKAQPSSSEDELDNVFFKKENVEQCHNDTKEESKKESETLGRKQKIIIAKENSTRKDPSTTKDEKISLGKESTPSEEPSPPHNSKHNKSPTLSCRFAILKESPRSLLAQKSSHLEETGSDSGTLLSTSSQASLARFSMKKSTSPETKHSEFLANVSTITSDYSTTSSATYLTSLDSSRLSPEVQSVAESKGDEADDERSELISEGRPVETDSESEFPVFPTALTSERLFRGKLQEVTKSSRRNSEGSELSCTEGSLTSSLDSRRQLFSSHKLIECDTLSRKKSARFKSDSGSLGDAKNEKEAPSLTKVFDVMKKGKSTGSLLTPTRGESEKQEPTWKTKIADRLKLRPRAPADDMFGVGNHKVNAETAKRKSIRRRHTLGGHRDATEISVLNFWKVHEQSGERESELSAVNRLKPKCSAQDLSISDWLARERLRTSTSDLSRGEIGDPQTENPSTREIATTDTPLSLHCNTGSSSSTLASTNRPLLSIPPQSPDQINGESFQNVSKNASSAANAQPHKLSETPGSKAEFHPCL
notes: also called ARHGA21; source: endogenous, Caco-2, Caco-2 ShPTEN, HCT116 and PTEN-/- HCT116 cells (lysate, membrane fraction, or fixed cells)

Experiments:
β-Arrestin1 [1] = biological target: T1, β-Arrestin1 (human (endogenous in Caco-2 and HCT116), UniProt P49407 1-418); test: proximity ligation; Duolink II red kit on fixed, permeabilised cells; PTEN-/- HCT116 cells transfected 24 hr with GFP-tagged EV or PTEN constructs, HCT116 cells as positive control; signal as AI units, n = 35 cells per condition in triplicate; settings: partners not purified
T1 construct: β-Arrestin1, endogenous in human colorectal cell lines Caco-2 and HCT116 and their PTEN-deficient subclones; Precipitated with anti-β-Arrestin1 (bait of the co-IPs); detected with mouse anti-β-Arrestin1 in the PLA; also called Beta-Arrestin1; source: endogenous, Caco-2, Caco-2 ShPTEN, HCT116 and PTEN-/- HCT116 cells (lysate, membrane fraction, or fixed cells)

β-Arrestin1 [2] = biological target: T1, β-Arrestin1; test: cell-based or functional assay

T1 sequence (P49407 whole entry): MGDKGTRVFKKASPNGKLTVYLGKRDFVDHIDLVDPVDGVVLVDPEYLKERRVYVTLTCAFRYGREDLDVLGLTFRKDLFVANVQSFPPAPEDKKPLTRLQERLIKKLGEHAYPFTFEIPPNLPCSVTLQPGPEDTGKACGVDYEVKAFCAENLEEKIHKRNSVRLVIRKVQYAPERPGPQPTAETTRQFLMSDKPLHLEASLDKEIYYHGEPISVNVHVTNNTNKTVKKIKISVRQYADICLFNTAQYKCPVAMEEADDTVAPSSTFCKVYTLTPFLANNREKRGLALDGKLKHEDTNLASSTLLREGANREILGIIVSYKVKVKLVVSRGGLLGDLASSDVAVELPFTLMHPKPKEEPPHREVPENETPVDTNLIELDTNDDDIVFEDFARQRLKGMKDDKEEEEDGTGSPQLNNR

Binder | PLA interaction AI (β-Arrestin1 [1]) | Cdc42-GTP (ADU, fold) in HCT116 cells after pep24 vs control peptide (β-Arrestin1 [2]) | Cdc42-GTP (fold change, ADU) in Caco-2 cells after 10 μM pep24 vs control peptide (β-Arrestin1 [2])
B1 | 69.8 AI units |  | 
B2 | 101 AI units |  | 
B3 | 123 AI units | 0.44 fold change | 0.48 fold change
